Experimental data: patent US20220306762A1 (CRYSTAL BIOSCIENCE, published 2022)

How the values were obtained:
[1] = biological target: T1, His-tagged human CD38 (ACRO Biosystems CD8-H5224) (human, UniProt P28907 43-300); test: SPR (second run), His-tagged CD38
T1 construct: bought protein; used for ELISA coating and as SPR analyte; not shown: His tag

[2] = biological target: T2, His-tagged cynomolgus monkey CD38 (ACRO Biosystems, CD8-05223 [sic]) (cynomolgus monkey, UniProt Q5VAN0 43-301); test: SPR (second run), His-tagged CD38
T2 construct: bought protein; used for ELISA coating and as SPR analyte; not shown: His tag

[3] = biological target: T1, His-tagged human CD38 (ACRO Biosystems …); test: SPR, IgG
[4] = biological target: T2, His-tagged cynomolgus monkey CD38 (ACRO …); test: SPR, IgG

| Binder | Kd [1] | Kd [2] | Kd [3] | Kd [4] |
| --- | --- | --- | --- | --- |
| 40769p1.2.E3 (scFv, V domains shown) VH: EVQLLESGGDLVQPGGSLRLSCGASGFTFSDHYMSWVRQAPGKGLEWVADISARGSNTWYADSVKGRFTISRDNSENTLYLQMNSLRAEDTAVYYCAKNWNYNYGMDVWGQGTTVTVSS VL: QSVLTQAPSASGTPGQRVTISCSGSSIQNNYVSWYQQLPGTAPKLLIYRNFERPSGVPDRFSASKSGTSASLAISGLQSEDEADYYCASWDDSLNWVFGGGTKLTVL | 0.00674 µM | 0.0049 µM |  |  |
| 40769p1.2.B4 (scFv, V domains shown) VH: EVQLLESGGDLVQPGGSLRLSCGASGFTFSDHYMSWVRQAPGKGLEWVADISARGSNTWYADSVKGRFTISRDNSENTLYLQMNSLRAEDTAVYYCAKNWNYNYGMDVWGHGTTVTVSS VL: QSVLTQAPSASGTPGQRVTISCSGSSIQNNYVSWYQQLPGTAPKLLIYRNFERPSGVPDRFSASKSGTSASLAISGLQSEDEADYYCASWDDSLNWVFGGGTKLTVL | 0.00802 µM | 0.00784 µM |  |  |
| 40596p2.1.B8 IgG (antibody, V domains shown, IgG) VH: EVQLLESGGGLGQPGGSLRLSCAASGFDFSSYAMSWVRQAPGKGLEWVAGGGWSGSFIYYADSVKGRFTISRDNSKNTLYLQMNSLRAEDTAVYYCTRNPGFGEMDVWGQGTTVTVSS VL: EIVLTQSPGTLSLSPGERATLSCRASQTVGSNLAWYQQKPGQAPRLLIHGANNRATDIPDRFSGSGSGTEFTLTVSSLQSEDFAIYYCQQYNSWPPLTFGGGTKVEIK |  |  | 0.0185 µM | 0.159 µM |
| 40769p1.1.B8 (scFv, V domains shown) VH: EVQLLESGGGLVQPGGSLRLSCAASGFTFEDYAMSWVRQAPGKGLEWVSVISSKGGSTSNADSVKGRFTISRDNSKNTLYLQMNSLRAEDTAVYYCAKGMERQYYSYNAMDVWGQGTTVTVSS VL: QSVLTQPPSASGTPGQRVTISCSGSNSNIDVDYVYWYQQLPGTAPRLLIYKDDQRPSGVPDRFSGSKSGTSASLAISGLQSEDEADYYCATWDDNLNSWLFGGGTKLTVL | 0.00025 µM | 0.00329 µM |  |  |
| 40769p1.1.G12 (scFv, V domains shown) VH: EVQLLESGGGLVQPGGSLRLSCAASGFTFDDYVMSWVRQAPGKGLEWVSEISESDGSNKYYADSVKGRFIISRDNSKNTLYLQMNSLRAEDTAVYYCARLEPEKYYGMDVWGQGTTVTVSS VL: QSVLTQPPSASGTPGQRVTISCSGSNSNIGNNLVSWYQQLPGTAPKLLIYRHDHRPSGVPDRFSGSKSGTSASLAISGLQSEDEADYYCATWDDSLNGRAFGGGTKLTVL | 0.00281 µM | 0.0153 µM |  |  |
| 40769p1.1.G5 (scFv, V domains shown) VH: EVQLLESGGGFVQPGGSLRLSCAASGFNFNNAWMNWVRQAPGKGLEWVGIINGDGTNTYYADSVKGRFTISRDNSKNTLYLQMSSLRAEDTAIYYCARDNKLNDYYYAMDVWGQGTTVTV VL: QSVLTQPSSASGTPGQRVTISCSGGSSNIHANYVYWYQQLPGTAPKLLIYRNSQRPSGVPDRFSGSKSGTSASLAISGLQSEDEADYYCGTWDNILNVWVFGGGTKLTVL | 0.00756 µM | 0.0281 µM |  |  |
| 40769p1.1.E2 (scFv, V domains shown) VH: EVLLLESGGGLVQPGGSLRLSCAASGFTFSDYWMSWVRQAPGKGLEWVSTISISAGIIYYADSVKGRFTISRDNSKNTLYLQMNSLRAEDTAVYYCAKDNWNDYYGMDVWGQGTTVTVSS VL: QSVLTQPPSASGTPGQRVTMSCSGNNQNIRDNYVYWYQQVPGTAPKLLIYKDDQRPSGVPDRFSGSKSGTSASLAISGLQSEDEADYYCATWDGSLKARVFGGGTKLTVL | 0.00699 µM | 0.00831 µM |  |  |
| 40769p1.1.G10 (scFv, V domains shown) VH: EVQLLESGGGLVQPGGSLRLSCAASGFTFSDYWMNWVRQAPGKGLEWVSTISSGGSMIYHADSVKGRFTISRDNSKNTLYLQMNSLRPEDTAVYYCAKDNWNDYYGMDVWGQGTTVTVSS VL: QSVLTQPPSASGTPGQRVNISCSGSSSNIRYNYVYWYQQVPGTAPKLLIYKDDQRPSGVPDRFSGSESGTSASLAISGLQSEDEADYYCATWDGSLNARVFGGGTKLTVL | 0.00171 µM | 0.0721 µM |  |  |
| 40769p1.1.H1 (scFv, V domains shown) VH: EVQLLESGGGLVQPGGSLRLSCAASGFTFSDYWMNWVRQAPGKGLEWVSTISSGGSMIYHADSVKGRFTISRDNSKNTLYLQMNSLRPEDTAVYYCAKDNWNDYYGMDVWGQGTTVTVSS VL: QSVLTQPPSASGTPGQRVNISCSGSSSNIRYNYVYWYQQVPGTAPKLLIYKDDQRPSGVPDRFSGSKSGTSASLAISELQSEDEADYYCATWDGSLNARVFGGGTKLTVL | 0.0585 µM | 0.0599 µM |  |  |

The remaining lines, values ahead:

| Kd [1] | Kd [2] | Kd [3] | Kd [4] | Binder |
| --- | --- | --- | --- | --- |
| 0.00885 µM | 0.00827 µM |  |  | 40769p1.2.F9 (scFv, V domains shown) VH: EVQLLESGGDLVQPGGSLRLSCGASGFTFSDHYMSWVRQAPGKGLEWVADISARGSNTWYADSVKGRFTISRDNSENTLYLQMNSLRAEDTAVYYCAKNWNYNYGMDVWGQGTTVTVSS VL: QSVLTQAPSASGTPGQRVTISCSGSSIQNNYVSWYQQLPGTAPKLLIYRNFERPSGVPDRFSASKSGTSASLAISGLQSGDEADYYCASWDDSLNWVFGGGTKLTVL |
|  |  | 0.0657 µM | 0.148 µM | 40769p2.2.H8 IgG (antibody, V domains shown, IgG) VH: EVQLLESGGGLVQSGGSLRLSCAASGFNFNSHDMNWVRQAPGKGLEWVSSISADRGRTYYADSVKGRFTIFRDDSKKILYLQMNSLRAEDTAVYYCTKYYNMDVWGQGTTVTVSS VL: not shown |
|  |  | 0.00118 µM | 0.467 µM | 40769p2.1.E5 IgG (antibody, V domains shown, IgG) VH: EVQLLESGGGLVQPGGSLRLSCTASAHIFKYNWMSWVRQAPGKGLEWVSSINSDGTITYYTDSVKGRFTISRDNSKNTLYLQMNSLRAEDTAVYYCAKDNWNDYAIDVWGQGTTVTVSS VL: QSVLTQPPSASGTPGQRVTISCSGSRSDIRNNYVSWYQQLPGTAPKLLIYSNGQRPSGVPDRFSGSKSGTSASLAISGLQSEDEADYYCAIWDDSLNAWVFGGGTKLTVL |
|  |  | 0.00014 µM | 0.00035 µM | 40769p2.1.E8 IgG (antibody, V domains shown, IgG) VH: EVQLLESGGGLVQPGGSLRLSCTGFGFTFTDARMSWVRQAPGKGLEWVADISSYGDNTYYADSVKGRFTISRDNSANTLYVQMNSLRAEDTAVYYCAKRMEREVMTIKLDYHAMDVWGQGTTVTVSS VL: QSVLTQTPSVSGTPGQRVTISCSGVFNIRNYVSWYQQLPGTAPKLLIFKDDQRPSGVPDRFSGSRSGTSASLAISGLQSEDEADYYCAAWDIFLNVWVFGGGTKLTVL |
|  |  | 0.00067 µM | 0.00218 µM | 40769p2.2.C11 IgG (antibody, V domains shown, IgG) VH: EVQLLESGGGLVQPGGSLRLSCAASGFTFSDYEMNWVRQAPGKGLEWVSSISITGSWTYYADSVKGRFTISRDNSKNTLYLQMNNLRAEDTAVYYCANYKSYYGMDVWGHGTTVTVSS VL: not shown |
|  |  | 0.0219 µM | 0.0229 µM | 40769p2.2.A6 IgG (antibody, V domains shown, IgG) VH: EVQLLESGGGLVQPGGSLRLSCAASGFTFSDYEMNWVRQAPGKGLEWVSAISITGSWTYYADSVKGRFTISRDNSENTLYLQMNNLRAEDTAVYYCANYKSYYGMDVWGRGTTVTVSS VL: QSVLTQPPSASGTPGQRVTISCSGSRSNIRNNLVNWYQQLPGTAPKLLIYNTQRPSGVPDRFSGSKSGTSASLAISGLQSEDEADYYCASWDASLNAWVFGGGTKLTVL |
|  |  | 0.0413 µM | 0.348 µM | 40769p2.2.D3 IgG (antibody, V domains shown, IgG) VH: EVQLLESGGGLIQPGGSLRLSCTASGFDFSSYGMHWVRQAPGKGLEWVGIISDSGGTTYYADSVKGRFTISRDNSKNTLYLQMNSLRAEDTALYYCASYIMDVWGQGITVTVSS VL: QSVLTQPPSASGTPGQRVTISCSGSNSNVGVNSVYWYQQLPGTAPKLLIYGSGRRPSGVPDRFSVSKSGTSASLAISGLQSEDEADYYCAAWDGGLNAWVFGGGTKLTVL |
|  |  | 0.0504 µM | 0.205 µM | 40769p2.2.G3 IgG (antibody, V domains shown, IgG) VH: EVQLLESGGGLVQPGGSLRLSCTASGITFSRFNMFWVRQAPGKGLEFVASIRDDGSWTYYADSVKGQFTISRDNSKNTLYLQMNSLRAEDTAVYYCAKDYSSKDFIYHYVMDVWGQGTTVTVSS VL: QSVLTQPPSASGTPGQRVTISCSGRNSNIGNNVVNWYQQLPGTAPKLLIYRNQERPSGVPDRFSGSKSGTSASLAISGLQSEDEADYYCASWDDSLNAWVFGRGTKLTVL |
|  |  | 0.0113 µM | 0.259 µM | 40769p2.2.A9 IgG (antibody, V domains shown, IgG) VH: EVQLLESGGGLVQPGGSLRLSCTASGITFSRFNMFWVRQAPGKGLEFVASIRDDGSWTYYADSVKGQFTISRDNSKNTLYLQMNSLRAEDTAVYYCAKDYNSKDFIYHYVMDVWGQGTTVTVSS VL: QSVLTQPPSASGTPGQRVTISCSGRNSNIGNNVVNWYQQLPGTAPKLLIYRNQERPSGVPDRFSGSKSGTSASLAISGLQSEDEADYYCSTWDDSLNGWVFGGGTKLTVL |
|  |  | 0.0607 µM | 0.0293 µM | 40769p2.1.C1 IgG (antibody, V domains shown, IgG) VH: EVQLLESGGGLVQPGGSLRLSCAASGFSFSDYWMNWVRQAPGKGLEWVSTISSGGNMIYYADSVKGRFTISRDNSKNTLYLRMNSLRAEDTAVYYCAKDNWNDYYGMDVWGQGTTVTVSS VL: QSVLTQPPSASGTPGQRVTISCSGSSSNIRDNYVYWYQQVPGTAPKLLIYKDDQRPSGVPDRFSGSKSGSSASLAISGLQSEDEADYYCATWDGSLNARVFGGGTKLTVL |
|  |  | 0.057 µM | 0.167 µM | 40769p2.2.H4 IgG (antibody, V domains shown, IgG) VH: EVQLLESGGGLVQPGGSLRLSCAASGFDFSSYWMNWVRQAPGKGLEWVSTISSGGSIIYYADSVKGQFTISRDNSKNTLYLQMNSLRAEDTAVYYCAKDNWNDYYGMDVWGQGTTVTVSS VL: QSVPTQPPSASGTPGQRVTISCSGSSSNIRDNYVYWYQQVPGTAPKLLIYKDDQRPSGVPDRFSGSKSGTSASLAISGLQSEDEADYYCATWDGSLNARVFGGGTKLTVL |
